Results: PMC4932183, “Structure and activation of pro-activin A” (Nature Communications, 2016)

T1: cleaved pro-activin A complex (pro-mature complex) (human, UniProt P08476 311-426)
T1 sequence (P08476 whole entry, looked up): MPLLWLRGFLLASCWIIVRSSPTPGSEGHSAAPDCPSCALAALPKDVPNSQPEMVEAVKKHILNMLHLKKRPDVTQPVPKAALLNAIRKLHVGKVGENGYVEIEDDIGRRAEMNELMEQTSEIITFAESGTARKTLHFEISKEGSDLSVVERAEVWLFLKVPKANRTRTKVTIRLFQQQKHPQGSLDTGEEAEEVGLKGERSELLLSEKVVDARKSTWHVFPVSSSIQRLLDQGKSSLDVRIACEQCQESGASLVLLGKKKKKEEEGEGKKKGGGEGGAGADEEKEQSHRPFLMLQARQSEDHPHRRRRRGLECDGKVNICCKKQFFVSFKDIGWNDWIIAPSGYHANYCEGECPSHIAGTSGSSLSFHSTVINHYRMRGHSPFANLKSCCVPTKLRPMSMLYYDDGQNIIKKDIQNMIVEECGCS

B1: mature activin A (disulfide-linked dimer of the mature domain of inhibin βA) (ligand, human, UniProt P08476 311-426, looked up)
chain: GLECDGKVNICCKKQFFVSFKDIGWNDWIIAPSGYHANYCEGECPSHIAGTSGSSLSFHSTVINHYRMRGHSPFANLKSCCVPTKLRPMSMLYYDDGQNIIKKDIQNMIVEECGCS
notes: human inhibin βA chain (Uniprot P08476), mature domain, up to residue 426; residues marked m (Asp27m) count on the mature domain. numbers count on: the mature protein; Residues of the HRV 3C site could be left at the N-terminus of the complex-derived form; also called mature dimer; control activin A
B2: follistatin-288 (natural protein, UniProt P19883-2 30-317, looked up)
chain: GNCWLRQAKNGRCQVLYKTELSKEECCSTGRLSTSWTEEDVNDNTLFKWMIFNGGAPNCIPCKETCENVDCGPGKKCRMNKKNKPRCVCAPDCSNITWKGPVCGLDGKTYRNECALLKARCKEQPELEVQYQGRCKKTCRDVFCPGSSTCVVDQTNNAYCVTCNRICPEPASSEQYLCGNDGVTYSSACHLRKATCLLGRSIGLAYEGKCIKAKSCEDIQCTGGKKCLWDFKVGRGRCSLCDELCPDSKSDEPVCASDNATYASECAMKEAACSSGVLLEVKHSGSCN

What was measured:
[1] = biological target: T2, Avi-tagged follistatin-288, biotinylated (UniProt P19883-2 30-317, biotin (on the Avi tag, by BirA)); assay: BLI; biotinylated Avi-tagged FST-288 immobilised on streptavidin biosensors; analytes in kinetic buffer (PBS, 0.1% bovine serum albumin, 0.02% Tween-20); 600 s association, 600 s dissociation; 30 °C; details: both partners purified
T2 construct: source: biotinylated with BirA enzyme, purified by reverse phase chromatography

[2] = biological target: B1; assay: cell-based or functional assay
[3] = biological target: T1, cleaved pro-activin A complex …; assay: cell-based or functional assay

Row | Kd [1] [nM] | IC50 of FST-288 for inhibition of signalling by 60 pM mature activin A; activin-inducible luciferase reporter in HEK293T cells [2] [pM] | IC50 of FST-288 for inhibition of signalling by 60 pM pro-activin A complex; activin-inducible luciferase reporter in HEK293T cells [3] [pM] | Binder
1 | 0.209 | – | – | B1
2 | – | 81 | 90 | B2
